Results: US20220195015A1 (published 2022)

Columns and labels:
[1] = target: SARS-CoV-2 spike protein receptor binding domain (RBD) (SARS-CoV-2, UniProt P0DTC2 319-539); assay: ELISA on plate-coated RBD
[2] = target: SARS-CoV-2 spike protein receptor binding domain (RBD) (SARS-CoV-2, UniProt P0DTC2 319-539); assay: ELISA, RBD coated on plate, mAb titrated

B1: C573 (antibody, V domains shown)
VH: QVQLQESGPGLVKPSGTLSLTCAVSGGSISTVNWWSWVRQPPGKGLEWIGEIHHSGNTNHNPSLRSRVTISVDKSKNQFSLKLRSVTAADTAVYYCARDGGRPGDAFDLWGQGTMVTVSS
VL: QSALTQPASVSGSPGQSITISCTGTSSDVGGYNYVSWYQQHPGKVPKVMIYDVSNRPSGISNRFSGSKSGNTASLTISGLQAEDEADYYCNSYRSNSTRVFGTGTKVTV
[1]
  EC50: 2.2 ng/mL

B2: C581 (antibody, V domains shown)
VH: EVQLVQSGAEVKKPGESLKISCKGSGYRFTSYWIAWVRQMPGKGLEWMGIIYPGDSDTRYSPSFQGQVTISADQSISTAYLQWSSLKASDTAMYYCARGGPPGGVKLELTDYWGQGALVTVSS
VL: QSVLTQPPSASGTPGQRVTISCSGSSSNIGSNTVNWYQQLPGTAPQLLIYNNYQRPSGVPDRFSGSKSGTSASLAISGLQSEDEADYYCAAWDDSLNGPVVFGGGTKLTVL
[1]
  EC50: 1.58 ng/mL

B3: C574 (antibody, V domains shown)
VH: QVQLVQSGAEVKKPGASVKVSCKASGYTFTSYGFSWVRQAPGQGLEWLGWISAYNGNTNYAQKLQGRVTMTTDTSTSTAYMELRSLRSDDTAVYYCARAIAVAGTSGEFDYWGQGTLVTVSS
VL: not shown
[1]
  EC50: 8.12 ng/mL

B4: C578 (antibody, V domains shown)
VH: QVQLVESGGGVVQPGRSLRLSCAASGFTFSSSGMHWVRQAPGKGLEWVAIISYDGSNKYYADSVKGRFTISRDNSKNTLSLQMNSLRAEDTAVYYCAKDPLPFRDFFYYYMDVWGKGTTVTVSS
VL: QSALTQPASVSGSPGQSITISCTGTSSDVGGYNYVSWYQQHPGKAPKLMIYDVSNRPSGVSNRFSGSKSGNTASLTISGLQAEDEADYYCSSYTSSSTLGVFGTGTKVTVL
[1]
  EC50: 1.08 ng/mL

B5: C572 (antibody, V domains shown)
VH: EVQLVESGGGLIKPGRSLRLSCTASGFTFGDYAMTWFRQAPGKGLEWVGFIRSKAYGGTTGYAASVKYRFTISRDDSKSIAYLQMDSLKTEDTAVYYCTRWDGWSQHDYWGQGTLVTVSS
VL: DIVMTQSPLSLSVTPGEPASISCRSSQSLLHSNGNNYFDWYLQKPGQSPQLLIYLASNRASGVPDRFSGSGSGTDFTLKISRVEAEDVGVYYCMQVLQIPYTFGQGTKLEI
[1]
  EC50: 2.9 ng/mL

B6: C537 (antibody, V domains shown)
VH: QLQLQESGPGLVKPSETLSLTCTVSGGAISSRNYHWGWIRQPPGKGLEWIGSIYYSGSTYYSPSLKSRVTISVDTSKNQFSLRLSSVTAADTAVYYCARLETSGWYTEDVFDIWGQGTMVTVSS
VL: DIQMTQSPSSLSASVGDRVTITCRASQSISSYLNWYQQKPGKAPKLLIYAASSLQSGVPSRFSGSGSGTDFTLTISSLLPEDFATYYCQRSYSAMYTFGQGTKLEIK
[2]
  EC50: 41.9 ng/mL

B7: C571 (antibody, V domains shown)
VH: EVQLVESGGGLIQPGGSLKLSCVVSGFTVSRNYISWVRQAPGKGLEWVSVLFAGGSTFYADSVKGRFAISRDNSNNTLFLQMNSLRVEDTAIYYCARGDGELIFDQWGQGTLVTVSS
VL: QSVLTQPPSVSGAPGQRVTIVCTGTSSNIGAGYDVHWYQQLPGRAPKVLVSGNNIRPSEVPDRFSGSRSGTSASLAITSLQPEDEAQYYCQSYDSNLYAVFGGGTKLTVL
[1]
  EC50: 4.63 ng/mL

B8: C570 (antibody, V domains shown)
VH: QVQLQESGPGLVKPSETLSLTCTVSGASISSYYWSWIRQPPGKGLEWIGYIYYSGSTNYNPSLKSRVTISLDTSKNQFSLQLSSVTAADTAVYYCATYYFDNSGYSYGLDVWGQGTTVTVSS
VL: DIQMTQSPSSLSASVGDRVTIACRASQSISSYLHWYQQQPGKAPKLLIYAVTNLQSGVPSRFSGSGSGTDFTLTISSLQPEDFATYYCQQSYSLPQTFGQGTKVEIK
[1]
  EC50: 0.74 ng/mL

B9: C560 (antibody, V domains shown)
VH: EVQLVESGGGLVQPGRSLRLSCAASGFTFDDYAMHWVRQAPGKGLEWVSGVSWNSGTIGYADSVKGRFTISRDNAKNSLYLQMNSLRAEDTALYYCAKIADIVRAYDFWSGQHFDAFDIWGQGTMVTVSS
VL: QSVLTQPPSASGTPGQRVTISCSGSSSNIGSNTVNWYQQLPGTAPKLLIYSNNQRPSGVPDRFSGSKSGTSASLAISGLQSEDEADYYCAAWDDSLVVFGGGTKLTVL
[2]
  EC50: 1.6 ng/mL

B10: C561 (antibody, V domains shown)
VH: EVQLVESGGGLVQPGRSLRLSCAASGFTFDDYAIHWVRQAPGKGLEWVSGVSWNSGTIGYADSVKGRFFISRDNAKNSLYLQMNSLRAEDTAWYYCAKIADLVGAYDFRSGQHFAAFDVWGQGTMVTVSS
VL: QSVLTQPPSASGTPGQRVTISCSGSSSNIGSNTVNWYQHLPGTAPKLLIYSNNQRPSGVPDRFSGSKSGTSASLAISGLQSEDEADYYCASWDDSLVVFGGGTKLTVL
[2]
  EC50: 1.53 ng/mL

B11: C556 (antibody, V domains shown)
VH: QVQLVQSGAEVKKPGASVKVSCKASGYTFTYYYMHWVRQAPGQGLEWMGIINPSGGSTSYAQKFQGRVTMTRDTSTSTVYMELSSLRSEDTAVYYCARPLLPGETGSLNRLDYWGQGTLVTVSS
VL: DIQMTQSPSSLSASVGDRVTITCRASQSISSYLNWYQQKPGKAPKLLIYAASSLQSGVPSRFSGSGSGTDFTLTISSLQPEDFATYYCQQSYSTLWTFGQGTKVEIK
[2]
  EC50: 1.36 ng/mL

B12: C576 (antibody, V domains shown)
VH: QVQLVQSGAEVKKPGSSVKVSCKASGGTFSIYAISWVRQAPGQGLEWMGGIIPILGTANYAQKFQGRVTITADESTSTAYMELSSLRSEDTAVYYCASFHVAYGDYIPFDYWGQGTLVTVSS
VL: not shown
[1]
  EC50: 5.29 ng/mL

B13: C558 (antibody, V domains shown)
VH: EVQLVQSGAEVKKPGESLKISCKVSGYTFTNYWIGWVRQMPGKGLEWMGIIYPGDSDTRYSPSFQGQVTISADKSIITAYLQWSSLKASDTAMYYCARVPSSSDYGDYGGFEYWGQGTLVTVSS
VL: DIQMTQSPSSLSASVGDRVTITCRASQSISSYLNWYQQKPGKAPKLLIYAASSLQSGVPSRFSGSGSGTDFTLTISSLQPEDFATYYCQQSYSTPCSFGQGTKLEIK
[2]
  EC50: 2.41 ng/mL

B14: C559 (antibody, V domains shown)
VH: EVQLVQSGAEVKKPGESLKISCKVSGYTFTNYWIGWVRQMPGKGLEWMGIIFPGDSDTRYSPSFQGQVTISADRSITTAYLQWRSLKASDTAMYYCARVPSSSDYGDYGGFEYWGQGTLVTVSS
VL: DIQMTQSPSSLSASVGDRVTITCRASQTITIYLNWYQQKPGKAPKLLIYAASSLQSGVPSRFSGSGSGTDFTLTISSLQPEDFATYYCQQSYSTPCSFGQGTKLEIK
[2]
  EC50: 2.89 ng/mL

B15: C538 (antibody, V domains shown)
VH: QLQLQESGPGLVKPSETLSLTCTVSGGSISSSSYYWAWIRQPPGKGLEWIGNIYYSGITYYSPSLKSRVTISVDTSKNQFSLKLRSVTAADTAVYYCARQHRYGSGSSELLWGQGTLVTVSS
VL: QSALTQPPSASGSPGQSVTISCTGTSSDVGSYNYVSWYQQHPGKAPKLMIYEVTKRPSGVPDRFSGSKSGNTASLTVSGLQADDEADYYCSSYAGSSNLIFGGGTKLTVL
[2]
  EC50: 3.95 ng/mL

B16: C535 (antibody, V domains shown)
VH: EVQLVESGGALVQPGRSLRLSCAASGFTFDDYAMHWVRQAPGKGLEWVSSISWNGVSIGYADSVRGRFTISRDNAKNSLYLQMNSLKIGDTAFYYCARGLDGSSSASPDSWGQGTLVTVSS
VL: DIQMTQSPSSVSASVGDRVTITCRASQGIGSWLAWYQQKPGKAPKLLIYLASSLQSGVPSRFSGSGSGTYFTLTISGLQPEDFATYYCQQGNSFPLTFGGGTKVEIK
[2]
  EC50: 2.46 ng/mL

B17: C552 (antibody, V domains shown)
VH: QVQLVESGGGVVQPGRSLRLSCAASGFTFSSYAMHWVRQAPGKGLEWVALISYDGSNKHYADSVKGRFTISRDNSKNTLYLQMNSLRAEDTAVYYCARAGTTNSDYFDYWGQGTLVTVSS
VL: SYELTQPPSVSVAPGKTARITCGGNNIGSKSVHWYQQKPGQAPVLVIYYDTDRPSGIPERFSGSNSGNTATLTISRVEAGDEADYYCQVWDSSSALWVFGGGTKLTVL
[2]
  EC50: 1.08 ng/mL

B18: C553 (antibody, V domains shown)
VH: QVQLVESGGGVVQPGRSLRLSCAASGFTFSNYEIHWVRQAPGKGLEWVAGISYDGSTKYYADSVKGRFTISRDNSKNTLYLQMNSLRPEDTAVFYCARAGTTNSDYFDYWGQGTLVTVSS
VL: SYELTQPPSVSVAPGMTARITCGGNTIGSKSVHWYQQKAGQAPVLVIYYDSDRPSGIPERFSGSNSGNTATLTISRVEAGDEADYYCQVWDSSSVLWVFGGGTKLTVL
[2]
  EC50: 1.19 ng/mL

B19: C534 (antibody, V domains shown)
VH: QVQLVQSGAEVKKPGSSVRVSCKASGGTFSRNVISWVRQAPGQGLEWMGGIIPMFATANYAQKFQGRVTITADESSSTAYMELSSLRSEDTAVYYCAREDFILVSAPIRENSYYYYGMDVWGQGTTVTVSS
VL: EIVLTQSPGTLSLSPGERATLSCRASQSVSSNYLAWYQQKPGQAPRLLIYDASSRATGIPDRFSGSGSGTDFTLTISRLEPEDFAVYYCQQYGGSPRTFGQGTKVEIK
[2]
  EC50: 4.85 ng/mL

B20: C550 (antibody, V domains shown)
VH: EVQLVQSGAEVKKPGESLKISCKGSGYRFTNYWIGWVRQMPGKGLEWMGIIYPGDSDTRYSPSFQGQVTISADKSITTAYLQWSSLKASDTAMYYCARLSDRWYSPFDPWGQGTLVTVSS
VL: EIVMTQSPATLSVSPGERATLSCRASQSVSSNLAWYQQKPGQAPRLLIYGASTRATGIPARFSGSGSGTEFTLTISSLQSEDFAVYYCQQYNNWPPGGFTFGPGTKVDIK
[2]
  EC50: 2.56 ng/mL

B21: C533 (antibody, V domains shown)
VH: EVQLVESGGSLVKPGGSLRLSCVASGLTFNHAWMSWVRQAPGKGLEWVGRIKSKIDGGTTDYAAPVKGRFTISRDDSKSTQYLQMNSLKTEDTAVYYCTTDCFWRLGGTTCYEHDAFDVWGQGTMVTVSS
VL: DIQMTQSPSSLSASVGDRVTITCRASQAIATFLNWYQQKPGKAPKLLIYAASSLQSGVPSRFSGSGSGTDFTLTISNLQPEDFATYYCQQSYNSLHFGGGTKVEIK
[2]
  EC50: 1.61 ng/mL

B22: C580 (antibody, V domains shown)
VH: EVQLVQSGAEVKKAGESLKISCNSSGYSFTNYWIAWVRQVPGKGLEWMGIIYLGDSDTRYSPSFQGRVTISADKSISAAYLHWSSLKASDTAIYYCARGGPPGGVKLELTDFWGQGTLVTVSS
VL: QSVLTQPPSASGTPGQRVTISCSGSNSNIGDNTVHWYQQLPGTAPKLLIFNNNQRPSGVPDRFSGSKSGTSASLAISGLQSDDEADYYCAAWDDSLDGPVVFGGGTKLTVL
[1]
  EC50: 1.82 ng/mL

B23: C536 (antibody, V domains shown)
VH: QVQLVESGGGLVKPGRSLRLSCTVSGFTFGAYAMSWFRQAPGKGLEWVGFIRSKTYGGTTEYAASLKGRFTISRDDSKSIAFLQMNSLKTEDTAVYFCSRGGYYDGSPYYWNRPDAFDIWGLGTMVTVS
VL: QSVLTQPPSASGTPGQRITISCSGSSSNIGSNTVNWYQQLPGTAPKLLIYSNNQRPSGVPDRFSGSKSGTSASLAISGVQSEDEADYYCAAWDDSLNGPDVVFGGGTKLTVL
[2]
  EC50: 1.88 ng/mL

B24: C555 (antibody, V domains shown)
VH: EVQLVESGGGLVKPGGSLRLSCAASGLTFSTTWMSWVRQAPGKGLEWVGRIKSKGDGGTTDFAGPVKGRFSISRDDSKNTLYLHMNSLKTEDTAVYYCTTDDPGSYYYGMDVWGQGTTVTVSS
VL: QTVVTQEPSLTVSPGGTVTLTCASSTGAVTSGHYPYWFQQKPGQAPRTLIYATSNKHSWTPARFSGSLLGGKAALTLSGAQPEDEADYYCLLSYSGARVFGGGTKLTVL
[2]
  EC50: 2.88 ng/mL

B25: C577 (antibody, V domains shown)
VH: QVQLVQSGAEVKKPGSSVKVSCKASGDTFSIYAFSWVRQAPGQGLQWMGAIIPLLGTTNYAQKFLGRVTITADESTSTTFMELSSLTSEDTAVYHCATFHVAYGDYIPFDSWGQGTLVIVSS
VL: not shown
[1]
  EC50: 1.32 ng/mL
